From patent US20180273635A1 (Zymeworks, published 2018)

How the values were obtained:
[1] = biological target: T1, HER2 expressed on the surface of cells (human, UniProt P04626 23-1255); assay: cell-based or functional assay
[2] = biological target: T1, HER2 expressed on the surface of cells; assay: cell-based or functional assay; remark: listed apart in the source
[3] = biological target: T1, HER2 expressed on the surface of cells; assay: cell-based or functional assay; remark: listed apart in the source
[4] = biological target: T1, HER2 expressed on the surface of cells; assay: cell-based or functional assay; remark: listed apart in the source
[5] = biological target: T1, HER2 expressed on the surface of cells; assay: cell-based or functional assay; remark: listed apart in the source
[6] = biological target: T1, HER2 expressed on the surface of cells; assay: cell-based or functional assay; remark: listed apart in the source
[7] = biological target: T1, HER2 expressed on the surface of cells; assay: cell-based or functional assay; remark: listed apart in the source
[8] = biological target: T1, HER2 expressed on the surface of cells; assay: flow cytometry on BT474 cells, n=1
Procedure: (§1) Binding of the test antigen-binding constructs to the surface of HER2+ cells was determined by flow cytometry. Cells were washed with PBS and resuspended in DMEM at 1×10⁵ cells/100 μl. 100 μl cell suspension was added into each microcentrifuge tube, followed by 10 μl/tube of the antigen-binding constructs. The tubes were incubated for 2 hr at 4° C. on a rotator. The microcentrifuge tubes were centrifuged for 2 min 2000 RPM at room temperature and the cell pellets washed with 500 μl media. Each cell pellet was resuspended in 100 μl of fluorochrome-labelled secondary antibody diluted in media to 2 μg/sample. The samples were then incubated for lhr at 4° C. on a rotator. After incubation, the cells were centrifuged for 2 min at 2000 rpm and washed in media. The cells were resuspended in 500 μl media, filtered, transferred to a tube containing 5 μl propidium iodide (PI) and analyzed on a BD LSR II flow cytometer according to the manufacturer's instructions. The B50 of the tested antigen-binding constructs was assessed by FACS with data analysis and curve fitting performed in GraphPad Prism. The experiment was carried out once (n=1) in SKBr3 cells, and twice (n=2) in SKOV3, MCF7, and BT-474 cells.
(§2) The experiment was performed once (n=1) in each cell line.

[9] = biological target: T1, HER2 expressed on the surface of cells; assay: flow cytometry on SKBR3 cells, n=1
Procedure: as §1, §2

[10] = biological target: T1, HER2 expressed on the surface of cells; assay: flow cytometry on MCF7 cells (low HER2), n=1
Procedure: as §1, §2

[11] = biological target: T1, HER2 expressed on the surface of cells; assay: flow cytometry on BT474 cells, n=1; B50 = concentration at 50% of Bmax
Procedure: as §1, §2

[12] = biological target: T1, HER2 expressed on the surface of cells; assay: flow cytometry on SKBR3 cells, n=1; B50 = concentration at 50% of Bmax
Procedure: as §1, §2

[13] = biological target: T1, HER2 expressed on the surface of cells; assay: flow cytometry on MCF7 cells (low HER2), n=1; B50 = concentration at 50% of Bmax
Procedure: as §1, §2

Recombinant human HER2 [14] = biological target: T2, Recombinant human HER2 (human, UniProt P04626 23-652); assay: SPR, FSA captured on anti-human Fc, HER2 flowed, 25 C, after protein A and SEC
T2 construct: extracellular domain; analyte of the SPR assays; also called HER2 ECD; ECD2 of HER2

Recombinant human HER2 [15] = biological target: T3, Recombinant human HER2 (human, UniProt P04626 23-652); assay: SPR at 25 C, affinity against WT v10013
T3 construct: extracellular domain; also called HER2 ECD
Procedure: (§3) The affinity towards HER2 ECD of the samples was measured by SPR on a Biacore T200 as follows. Between 2000 and 4000 RU of anti-human Fc injected at concentration between 5 and 10 μg/ml was immobilized on a CM5 chip using standard amine coupling. Antigen-binding constructs were captured on the anti-human Fc (injected at concentration at 0.51 microg/mL in PBST, 1 min at 10 microl/min) at response levels ranging from 120-270 RU. […] HER2 dilutions were analyzed in duplicates. Sensograms were fit globally to a 1: 1 Langmuir binding model, using the software provided with the Biacore T200. All experiments were conducted at 25° C.

Recombinant human HER2 [16] = biological target: T3, Recombinant human HER2; assay: SPR at 25 C, affinity against v10014 (itself, reference)
Procedure: as §3

B1: Variant 12471 (antibody, human IgG1, kappa, name in Kabat numbering, V domains shown)
VH: EVQLVESGGGLVQPGGSLRLSCAASGFTFADYTMDWVRQAPGKGLEWVGDVNPNSGGSIYNQRFKGRFTFSVDRSKNTLYLQMNSLRAEDTAVYYCARNLGPSFYFDYWGQGTLVTVSS
VL: DIQMTQSPSSLSASVGDRVTITCKASQDVSIGVAWYQQKPGKAPKLLIYSASYRYTGVPSRFSGSGSGTDFTLTISSLQPEDFATYYCQQYYIYPATFGQGTKVEIKR
notes: Kabat numbering; also called v12471; FSA version of v9996
growth inhibition IC50 (potency), SKBR3 cells, 5 days [1]: 0.1 nM
growth inhibition IC50, BT474 cells + EGF, 6 days [2]: 0.3 nM
growth inhibition IC50, BT474 cells, 6 days [2]: 0.1 nM
growth inhibition IC50 (potency), SKBR3 cells [3]: 0.12 nM
growth inhibition span (percentage of cells killed), SKBR3 cells [3]: 22%
growth inhibition span ratio to WT, SKBR3 cells [3]: 1.3 fold
growth inhibition IC50 (potency), BT474 cells [4]: 0.31 nM
growth inhibition span (percentage of cells killed), BT474 cells [4]: 26%
growth inhibition span ratio to WT, BT474 cells [4]: 2.5 fold
growth inhibition IC50 (potency), BT474 cells + EGF [5]: 1 nM
growth inhibition span (percentage of cells killed), BT474 cells + EGF [5]: 27%
growth inhibition span ratio to WT, BT474 cells + EGF [5]: 1.5 fold
growth inhibition IC50 (potency), NCI-N87 cells, 5 days [6]: 1.8 nM
growth inhibition span (percentage of cells killed), NCI-N87 cells [6]: 32%
increase in efficacy with respect to the WT, NCI-N87 cells [6]: 1.9 fold
increase in potency with respect to the WT, NCI-N87 cells [6]: 5.1 fold
growth inhibition span (percentage of cells killed), MDA-MB-175 cells [7]: 75%
Bmax [8]: 23000 MFI
Bmax [9]: 27000 MFI
Bmax [10]: 570 MFI
B50 [11]: 3.1 nM
B50 [12]: 6.6 nM
B50 [13]: 1.2 nM

B2: variant 12471 (antibody, human IgG1, kappa, name in Kabat numbering, V domains shown)
VH: EVQLVESGGGLVQPGGSLRLSCAASGFTFADYTMDWVRQAPGKGLEWVGDVNPNSGGSIYNQRFKGRFTFSVDRSKNTLYLQMNSLRAEDTAVYYCARNLGPSFYFDYWGQGTLVTVSS
VL: DIQMTQSPSSLSASVGDRVTITCKASQDVSIGVAWYQQKPGKAPKLLIYSASYRYTGVPSRFSGSGSGTDFTLTISSLQPEDFATYYCQQYYIYPATFGQGTKVEIKR
notes: FSA, bivalent, wild type Fc; also called v12471; FSA version of v9996
Kd (Recombinant human HER2 [14]): 1.8 nM

B3: Variant 10014 (pertuzumab T30A / Y96A, one-armed format) (antibody)
heavy: EVQLVESGGGLVQPGGSLRLSCAASGFTFADYTMDWVRQAPGKGLEWVADVNPNSGGSIYNQRFKGRFTLSVDRSKNTLYLQMNSLRAEDTAVYYCARNLGPSFYFDYWGQGTLVTVSSASTKGPSVFPLAPSSKSTSGGTAALGCLVKDYFPEPVTVSWNSGALTSGVHTFPAVLQSSGLYSLSSVVTVPSSSLGTQTYICNVNHKPSNTKVDKKVEPKSCDKTHTCPPCPAPELLGGPSVFLFPPKPKDTLMISRTPEVTCVVVDVSHEDPEVKFNWYVDGVEVHNAKTKPREEQYNSTYRVVSVLTVLHQDWLNGKEYKCKVSNKALPAPIEKTISKAKGQPREPQVYVYPPSRDELTKNQVSLTCLVKGFYPSDIAVEWESNGQPENNYKTTPPVLDSDGSFALVSKLTVDKSRWQQGNVFSCSVMHEALHNHYTQKSLSLSPG
light: not shown
Fc: not shown
notes: Monovalent one-armed (OA) antibody; also called v10014
Fold wrt WT (Recombinant human HER2 [15]): 7 fold
Fold wrt v10014 (Recombinant human HER2 [16]): 1 fold
